This passage reports binding signal and Kd results from US20080234175, “Process for Designing Inhibitors of Influenza Virus Structural Protein 1” (published 2008).

One may read the Kd as the equilibrium constant for the complex coming apart.

Series [1] concerns the target NS1A(1-73) RNA-binding domain of influenza A virus NS1 protein (Influenza A virus) (UniProt P03495). The series can be described thus: EMSA. To be noted: CITED Wang 1999; 10-fold higher affinity than for 55-bp dsRNA; cited from earlier work. (In general: In EMSA bound probe runs differently from free probe, usually more slowly.)
For series [2], the target named is NS1A(1-73) RNA-binding domain of influenza A virus NS1 protein (Influenza A virus, UniProt P03495 P03495:1-73). Kind of series: sedimentation equilibrium, 25 C, 1:1 dimer:duplex; summarized as ~1 uM. The following applies: tags: pET11a expression in E. coli BL21(DE3), no tag stated; chain copies: 2 (stated, homodimer); label: 5'-32P for gel shift; unlabeled otherwise.
Sequence of NS1A(1-73) RNA-binding domain of influenza A virus NS1 protein (P03495 1-73, one chain of several): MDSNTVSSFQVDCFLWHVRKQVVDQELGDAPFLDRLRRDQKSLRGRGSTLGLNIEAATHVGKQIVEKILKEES

Sequence of NS1A(1-73) RNA-binding domain of influenza A virus NS1 protein (Influenza A virus) (P03495 1-73): as the sequence (P03495 1-73, one chain of several) above

In the case of 140-bp dsRNA, in series [1], the binding signal is 10 fold.

B1: 16-bp dsRNA (RR) (dsRNA)
RNA 1: CCAUCCUCUACAGGCG
RNA 2: CGCCUGUAGAGGAUGG
As for B1, the Kd in series [2] came to 748 nM.
